assay: soluble fraction after stress (log2 fold change); higher = more stays soluble; pooled small domains, quantitative proteomics; conditions: stress: 75 degC
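Further: 20 min heating vs room temperature control held 20 min.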

Row | Sequence | soluble fraction (log2)
1 | HMLTQEEITRRRGEILTAAMGVILRKGFLETSMREIAEAAGVGKSTLYDYFPSKDEIMIAYVVD | -0.97
2 | HMLTRYNVNYYYNGEILQRRKVAEGSAAERITYLSGSLEVTDWYTEADLLRKYDFTEPVTGDLNLYAFARI | -1.42
3 | HMLTSAQLAEIRQAVRAGQASVVEDLLKNGASPNFRMENGDTGFTYAVRADTPQVAEALLKSGKL | -0.00532
4 | HMLTTIRKATVNDKTRIMEIYAYARQFMAEHGNPNQWKNNNPSEETIDNDIAKQEMYVIETDGEVHAVFY | -1.64
5 | HMLVDWNYLEGKRGVTTTPLTPSGKARFGDDVVNVLSDGVLVSTGTPVRVLQVLGNRVLVEPLDG | -0.21
6 | HMLVGRDPQALILGSMPSEKSLEEDEYYAHPRNRFWSLMNWLLAGNKTRPAYKTGIEILSSHGIALWV | -0.358
7 | HMLVIMKTGASEEEIGRVIERIEGEGLSAHVSRGTERTVIGVIGQGVDVHRIAGVLGGMSGVESLVPIS | 0.0604
8 | HMLVLAENMDVIFTRRTLDDHVVVDYKTTIGEMVKNDEIKGENMDELISAVEKDGYELVSSTSGEIIFLND | -1.01
9 | HMLVVEPSAELKTIIDKTASFVARNGPEFEARIKNEQNNAKFSFLQPNDPFNPYYRAKIVELGGTV | 0.0126
10 | HMLVYQRLDKDNFIFEGKTLLNDIYKILDIESNYFEAIRGEADSIAGLLLEIAKSIPTINTEF | -0.362
11 | HMLYEDVQVPNVRYWKSRDAKKQLEDLGLRVLTEHVNDAYIQSDQVIRTSPEIGDTLRTGDTVTLYVSDG | 0.163
12 | HMMKLSKRQEQIIAVVKEHQPVSGERISDILAVSRATLRSDLSFLTLSGILKASPKVGYTYES | -3.4
13 | HMMLVKKMLNGIMMKEITIKELADQYDVSTRTIQLKIKKLGYEWDSKESIYRYVGKESEPLDVDFSTLI | -3
14 | HMMQEIKLEVINNEELRIDNYINLAGIGLSRSYIQKLIKDGVILVNGKEVKSSYKVSLGDIISVQIPDPG | -0.436
15 | HMMVIMRANATEPQIANVVAYVEKNGLNAHLSRGAERTVIGVVGDIRRVSKETFELMDGVDSVMRIS | -0.631
16 | HMNADKEALIAAAYRNSLIENFGTENVERYEERFNKWADKHDRQGMPMYPTIEKWMNEDNIA | 0.0631
17 | HMNADRIVGQTAKVIHPITPDEKGRVMVDNLDWAAAAQNRGESFEVGEEVSIVRIEGVTVYVQK | -0.234
18 | HMNADTVIGKAGTVIEKIDNVAATGAVKIDGKVWTARSERDNITIDEGTLVKAMAIEGVKLIVEPVT | 0.139
19 | HMNAEGLIGREAVALTAVDAHGGRVRLGGEEWSARLSKENGGVSRLSVGDPVRVTDIDGAIAVVAP | 0.118
20 | HMNAEQLAQVRRQKIGFIFQDFRLFPEYTVRDNILIPFYLDHRAPDEQMLHKLTGILGIAGKLHSRPAQL | -0.181
21 | HMNAKVVAPIPGTVLSIDIKVGDVIKIGDRLLVLEAMKMENNIASEKSGTVTAVHVKVGQQVLQNELMIEL | -2.17
22 | HMNALNDLESKIFEEVVKAPEIIMNMTIREFASTVHASPTTIVRMTHKLGFSGWNELKTYLQKQKHQIS | -1.72
23 | HMNALREVNTSILNVRSGAGTNYSKIGSLTQATRVSVISESNGWSKINYNGKVGYVSSQYLS | -1.53
24 | HMNAMKPVLTVSLGVHTDSLSRRLNEEGIIYRWQQAASEQLLLVDSESSSERIAELIHDWRLEQSSS | -0.0158
25 | HMNANTILNSQRILTQLGFNPGPIDGAFGAKTKGALNAFYTSIGKSYDGLLDSNELVELQKALDVSGLKN | -0.524
26 | HMNDADAHASVDAALKHLEALAETTPEVRAALELVRRGPDGRVTVDSFARVAEALREISIAVGAS | 0.024
27 | HMNDELMEQIDEWHKAEKHQEIIDALEQIPEAERDFETTGFLARAYNNIEEYAKAADLLESVRE | 0.0973
28 | HMNDGEIAAPVSGTLQSFKVEDGQTVSEGDLVAVMEAMKMETQILATKGGTIRLLVKEGDYLQAGHALMTI | -0.667

Row | Sequence | soluble fraction (log2)
29 | HMNDGTIRVGTNVTIKPSAKRWATGQNIYYGVKGKTYKVIQMNGNRLLLDKVISWINKGDVYVPGS | -0.741
30 | HMNDIDRFIEALIEQDTLPGTNSRINEDVISEMKMMTSVEDIKAYAIATVGLTGGQVNNALINSGL | -0.072
31 | HMNDIVKIYTTHRIINIEGLAKNEPIMLYTINGTLIDKSVSSNGSAQLHVKGIGVYLVKWANNIVKVIVPN | -4.81
32 | HMNDLDSLWDIWENLNERGIGDKSEEGQELRDAIREFIDTNELNVRVTRNKTNEDLLTDIEDALEVAKNS | -0.588
33 | HMNDLIFSTLAEYDRDTITEIISVVDNTRGIGYEVELVRKDLIAMAAQAEARRDYLPSVIGDVEVFKRNLL | 0.354
34 | HMNDNQNKQMLWELLKDNRAFDNFDNKDYKTIIHLFNETVNTIDHRTPNLDLIKKNKIFIQDIMQKLSNL | -1.46
35 | HMNDSGIIGVVINDHEKYEGHVLEDGFISSSLSALSREIDVAGYFMMVKTVVYEGFFQELKGIGNV | 0.16
36 | HMNDTNEEAVLSIILKNPQATQGAIAKEVGASLSTVKRIMRNLQKSGKLRREGTNRNGSWVVTGQK | -0.289
37 | HMNDTPPELRAALDLLGLKWPLASVELRARYKDLAKQHHPDATGGDKQAEERLKDINRAYSLLKHRLAKQ | -0.143
38 | HMNDTVGMNIRRLRKERGMTQGDLADKAGIQRETISKYESNKLTPPSYNLESIEKALKVPAGTLAQ | 0.176
39 | HMNDYIGVDRAKEIALNHARMNESDVQFAKAKLENDDGVVEYEIEFYFGRTEYDYTIDAVSGNIIEYDVEY | -1.86
40 | HMNEDDQLLKVLLAEPLRLEELYNLDLKPQGPYNLQTWIMVHLTELERDGLIARFPDGRYGPAR | -2.03
41 | HMNEFAYLIKISPEHNNNRYYRMVAEGDNFRIEMGRIGASPVQMKRPMYLWNETYQKKLQEGYTDRTSYTS | -1.85
42 | HMNEIDLEAAKRIALQNAGVESADAAFTKAQLDYDDGVAEYEIEFVAGSTKYEYEISAANGTVLKSSKESV | -0.0387
43 | HMNEIEIHINKLFGKISDSKRKQELMQEITQNLNEKVSDLVSQGQTREQAVKKAIEDFGDIDDLKDELDN | 0.312
44 | HMNEIYHQIKVDNVSDDDISLFQYSGIEFDHADYRRGEYIEFAISNRDLSILNNLGYEYQVVHH | -0.872
45 | HMNEKAALIFNEWSDFVSKDDEANAQIKFDELITLYKKTGYTKIALLEVATKQASNGDIEGALAKYSLLID | 0.128
46 | HMNEKTGTLTVYSSPGWAKVYIDGEYKGITPVMANLTYGDHYVKLTLDGYDSIGNHIDVNSPDQSYTGKF | -0.768
47 | HMNELIGVEQLQDLREAIADHGFAEQRVLNWLYQATKGQVSRLEQLPLPMLTTLHKKLGQWADAEAAASSA | 0.3
48 | HMNELVEATITTQTGRLDKVLTTIFPQYSRSQIQQLLEQGNILVNETLQKGKYKVKAGDKISLTEPAIKE | 0.331
49 | HMNEMSDTITRLLDAAETGIRLRGYHAVSFRDLAEELGIKSSSVHYYFRQKEDLGLAVVERY | 0.000622
50 | HMNENDPRVIKTRRLLLDSFVVLVRKKDFTSISVKDITDSAQVNRATFYAHFQDKYDILEYMVID | 0.0912
51 | HMNENNFIVAMRERLAQFIETSGTSQSRIAKELGVSKSTVSLFLGGTYGGNNQELARNLEQLLSMGAARR | -1.45
52 | HMNEPMITEVKRINYGSIKEIAKNLDVFKGKNGTVIIDERTNTLILTDLSENIEKMLWSIEITD | -0.927
53 | HMNERTKIPLRKIEIGQAVYVDTLEKVGTVIDIQGKQFKVDLAGLPITVAARNLFYPLPQEAKP | -0.736
54 | HMNESADMPDVVNMSLEAAKSQLEGMGLKVKVENVEDDSVEENHVIKTSPVSGEKVKLGTTVTLTVSKGR | -0.116
55 | HMNESEALIARIENLPPIEDLTEKHAEEVKALMTVYSKLKMSDRILVTNYGVLKKDFDALVKKGFLTNED | -0.321

From the domain aggregation screens of Martell et al. (2025)
